# Experimental data taken from publication PMC4346194.
# Key:
# Experiment in all cases: pull-down
# [1] = molecular target: GST-tagged FL-importin α7 (human) (UniProt O60684)
# [2] = molecular target: GST-tagged FL-importin α1 (mouse) (UniProt P52293)
# [3] = molecular target: GST-tagged ΔIBB-importin α3 (human) (UniProt O00629)
# [4] = molecular target: GST-tagged IBB3-importin α1 (human | mouse) (UniProt O00629)
# [5] = molecular target: GST-tagged ΔIBB-importin α7 (human) (UniProt O60684)
# [6] = molecular target: GST-tagged ΔIBB-importin α1 (mouse) (UniProt P52293)
# [7] = molecular target: GST-tagged FL-importin α3 (human) (UniProt O00629)
# Sequence of GST-tagged FL-importin α3 (human) (O00629 whole entry): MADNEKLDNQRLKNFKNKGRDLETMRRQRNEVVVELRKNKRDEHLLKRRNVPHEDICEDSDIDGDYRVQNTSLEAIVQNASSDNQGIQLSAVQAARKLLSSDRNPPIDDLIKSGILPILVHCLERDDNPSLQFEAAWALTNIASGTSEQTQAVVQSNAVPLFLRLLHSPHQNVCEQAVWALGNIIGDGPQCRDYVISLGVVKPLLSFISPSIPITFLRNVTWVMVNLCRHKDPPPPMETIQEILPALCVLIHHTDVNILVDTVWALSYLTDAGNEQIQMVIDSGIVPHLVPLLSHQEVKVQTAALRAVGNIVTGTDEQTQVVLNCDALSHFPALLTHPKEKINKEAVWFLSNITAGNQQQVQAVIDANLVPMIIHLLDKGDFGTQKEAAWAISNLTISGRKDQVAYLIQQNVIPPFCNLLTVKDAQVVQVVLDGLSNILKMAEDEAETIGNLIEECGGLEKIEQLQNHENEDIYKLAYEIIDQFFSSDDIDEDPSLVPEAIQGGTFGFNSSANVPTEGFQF
# [8] = molecular target: GST-tagged IBB1-importin α3 (mouse | human) (UniProt P52293)
# Sequence of MBP-tagged PB2-biNLS (res. 738-759) (P31345 738-759 limits assumed): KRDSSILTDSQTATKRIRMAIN
# Sequence of GST-tagged ΔIBB-importin α7 (human) (O60684 59-536, stated change not applied): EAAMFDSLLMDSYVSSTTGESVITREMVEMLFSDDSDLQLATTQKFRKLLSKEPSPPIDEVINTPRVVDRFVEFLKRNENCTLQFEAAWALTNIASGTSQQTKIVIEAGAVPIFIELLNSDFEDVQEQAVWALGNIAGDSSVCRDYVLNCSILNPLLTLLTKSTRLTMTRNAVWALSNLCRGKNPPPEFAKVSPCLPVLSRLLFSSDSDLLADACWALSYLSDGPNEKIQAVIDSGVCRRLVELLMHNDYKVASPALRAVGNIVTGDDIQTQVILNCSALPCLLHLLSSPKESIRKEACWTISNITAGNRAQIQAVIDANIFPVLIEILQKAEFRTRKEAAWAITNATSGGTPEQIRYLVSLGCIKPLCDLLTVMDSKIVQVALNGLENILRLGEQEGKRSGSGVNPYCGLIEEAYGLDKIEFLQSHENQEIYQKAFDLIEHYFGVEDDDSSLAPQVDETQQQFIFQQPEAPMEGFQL
Substance,percent of importin α bound to cargo [1] [%],percent of importin α bound to cargo [2] [%],percent of importin α bound to cargo [3] [%],percent of importin α bound to cargo [4] [%],percent of importin α bound to cargo [5] [%],percent of importin α bound to cargo [6] [%],percent of importin α bound to cargo [7] [%],percent of importin α bound to cargo [8] [%]
MBP-tagged PB2-NLD (res. 678-759) (from UniProt P31345 678-759) (domain or fragment),62,32,100,70,100,100,,
MBP-tagged PB2-biNLS (res. 738-759) (from UniProt P31345 738-759) (peptide),21,7,27,,81,51,7,
"MBP-tagged nucleoplasmin NLS (NP-NLS, res. 155-170) (from UniProt P05221 155-170) (peptide)",,,45,57,,,,12
